Data from paper PMC10722498, “Fixing Flavins: Hijacking a Flavin Transferase for Equipping Flavoproteins with a Covalent Flavin Cofactor” (Journal of the American Chemical Society, 2023).

Experiments:
[1] = target: T1, miniSOG (Arabidopsis thaliana, UniProt P93025, I387M/N390S/S394T/S409G/C426G/A437D/T438I/Q440S/K441G/I442A/R443T/F470L); assay: X-ray crystal structure […] Å; MS; type: binding; conditions: miniSOG-F2; covalent; phosphoester to OG1 of Thr57; attached in vivo by ApbE
T1 construct: gene PHOT2; engineered LOV domain of phototropin 2, 106 residues, several mutations abolishing flavin-cysteine adduct; recombinant, coexpressed with ApbE

[2] = target: T2, miniSOG (Arabidopsis thaliana, UniProt P93025, I387M/N390S/S394T/S409G/C426G/F470L, form not given); assay: SDS-PAGE and MS; type: binding; conditions: covalent; attached in vivo by ApbE
T2 construct: gene PHOT2; engineered LOV domain of phototropin 2, 106 residues, several mutations abolishing flavin-cysteine adduct; recombinant, coexpressed with ApbE

[3] = target: T3, PpSB1-LOV (Pseudomonas putida, UniProt Q88E39); assay: absorbance of purified holoprotein; SDS-PAGE fluorescence; ESI-MS; type: binding; conditions: dissociable, noncovalent FMN
T3 construct: gene PP_4629; dimer
T3 sequence (Q88E39 1-142): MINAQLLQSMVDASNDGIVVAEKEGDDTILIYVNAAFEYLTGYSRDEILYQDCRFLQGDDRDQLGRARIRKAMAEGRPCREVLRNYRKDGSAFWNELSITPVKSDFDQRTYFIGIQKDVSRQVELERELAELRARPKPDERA

[4] = substrate: NC(=O)N/N=C/c1ccc([N+](=O)[O-])o1; assay: steady-state kinetics; type: biochemical, Bacillus tequilensis
Text: steady-state kinetics on BtNR

[5] = BtNR-F3, covalent FMN 100% (cofactor)

`Cc1cc2nc3c(=O)[nH]c(=O)nc-3n(C[C@H](O)[C@H](O)[C@H](O)COP(=O)(O)O)c2cc1C` [FMN] was tested, and the “X-ray crystal structure 2.0 Å; MS” value [1] was “the introduced phosphoester bond between OG1 of Thr57 and the phosphate of FMN”, the “SDS-PAGE and MS” value [2] was “SDS-PAGE and MS analyses revealed that both proteins were fully covalently flavinylated” and the “absorbance of purified holoprotein; SDS-PAGE fluorescence; ESI-MS” value [3] was “the wild-type protein did not yield in-gel fluorescence as it contains a dissociable FMN”.

B1: BtNR (Bacillus tequilensis) (protein)
chain: MADIKKQILDAYNFRHATKEFDPNKKVSDSDFEFILETGRLSPSSLGLEPWKFVVVQNPEFREKLREYTWGAQKQLPTASHFVLILARTAKDIKYNADYIKRHLKEVKQMPQDVSEGYISKTEEFQKNDLHLLESDRTLFDWASKQTYIALGNMMTAAAQIGVDSCPIEGFQYDHIHRILEEEGLLENGSFDISVMAAFGYRVRDPRPKTRSAVEDVVKWV
notes: recombinant, coexpressed with ApbE, purified
B1 was tested, and the Km ([4]; dissociable FMN) was 64 ± 11.5 µM, the kcat ([4]; dissociable FMN) was 32 ± 2.3 s⁻¹ and the kcat/Km ([4]; dissociable FMN) was 500000 M⁻¹ s⁻¹.

B2: BtNR (Bacillus tequilensis; A11D/A17T/F14S/H16A/N13L/R15G/Y12G) (protein)
chain: MADIKKQILDDGLSGATTKEFDPNKKVSDSDFEFILETGRLSPSSLGLEPWKFVVVQNPEFREKLREYTWGAQKQLPTASHFVLILARTAKDIKYNADYIKRHLKEVKQMPQDVSEGYISKTEEFQKNDLHLLESDRTLFDWASKQTYIALGNMMTAAAQIGVDSCPIEGFQYDHIHRILEEEGLLENGSFDISVMAAFGYRVRDPRPKTRSAVEDVVKWV
notes: as for B1
With B2 the Km [4, 5] was 42 ± 6.6 µM, the kcat [4, 5] was 4.5 ± 0.2 s⁻¹ and the kcat/Km [4, 5] was 110000 M⁻¹ s⁻¹.
